B1: YFL-4 (Lac-A1, Lac1-4), truncated (ssDNA)
DNA: GCAGGACACCGTAACACGGGCTGATGCTCTCTTTATTTTACCTAAATAAAGTGTCCTGC
B2: YFL-5 (Lac-A3, Lac8-2), truncated (ssDNA)
DNA: CAGGCAGGACACCGTAACCGGGCATTTGCTCTCAATTTAGTCTCAAATTGTGGCCTGCCTG
B3: YFL-7 (Lac-A6), truncated (ssDNA)
DNA: GCAGGACACCGTAACGGGTGCACACTCTTATTTTTACACGAGCCAAAAATATGTCCTGC

Target: lactoferrin (Lac) (bovine? ("from bovine milk"), UniProt P24627 20-708)
Test: protein microarray

Sequence of lactoferrin (Lac) (P24627 20-708): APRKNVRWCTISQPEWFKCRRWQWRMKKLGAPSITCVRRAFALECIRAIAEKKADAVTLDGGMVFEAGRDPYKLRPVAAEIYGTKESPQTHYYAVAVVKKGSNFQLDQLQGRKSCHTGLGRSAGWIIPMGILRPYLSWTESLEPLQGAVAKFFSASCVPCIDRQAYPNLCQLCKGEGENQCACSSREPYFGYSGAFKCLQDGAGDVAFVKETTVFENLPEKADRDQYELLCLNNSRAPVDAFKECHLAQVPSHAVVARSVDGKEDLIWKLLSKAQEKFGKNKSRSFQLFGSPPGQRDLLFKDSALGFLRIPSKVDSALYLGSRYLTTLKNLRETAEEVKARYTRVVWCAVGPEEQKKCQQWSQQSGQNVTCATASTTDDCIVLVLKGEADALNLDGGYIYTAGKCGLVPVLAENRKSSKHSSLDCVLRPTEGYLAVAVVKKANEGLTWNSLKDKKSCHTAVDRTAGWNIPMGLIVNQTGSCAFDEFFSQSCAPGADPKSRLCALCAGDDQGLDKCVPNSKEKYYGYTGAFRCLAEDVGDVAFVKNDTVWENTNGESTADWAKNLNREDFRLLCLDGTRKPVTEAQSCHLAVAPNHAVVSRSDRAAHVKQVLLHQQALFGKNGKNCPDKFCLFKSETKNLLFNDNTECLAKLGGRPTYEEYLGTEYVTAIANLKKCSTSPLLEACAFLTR

| Binder | binding signal [fluorescence intensity] |
| --- | --- |
| AGGCAGGACACCGTAACCGGTGCATCTATGGCTACTAGCTTTTCCTGCCT (ssDNA) [YFL-1 (Lac-6a), truncated] | 1780 |
| B1 | 2150 |
| B2 | 2240 |
| AGGCAGGACACCGTAACCGGTGCATCTATGGCTACTAGCTCTTCCTGCCT (ssDNA) [YFL-6 (Lac-A4), truncated] | 2840 |
| B3 | 2490 |

Reference: paper PMC9062193
